Results on one substance are retold here after US20030180892A1.

The assay has as its target IL-17-like receptor (on the BIAcore surface). Nature of the assay: BIAcore (SPR), negative control conditioned media. On the technique in general: Surface plasmon resonance follows binding to a sensor surface in real time, without labels.

Substance pC4 control conditioned media showed a response (RU) of 20 RU.
